167 variants from the RNAGym collection of RNA variant scans (doi:10.1073/pnas.2313332121) can be followed below.

B1: TPR t1 (parent)
chain: GACCAAUCUGCCCUCAGAGCUCGAGAACAUCUUCGGAUGCAGAGGAGGCAGGCUUCGGUGGCGCGAUAGCGCCAACGUCCUCAACCUCCAAUGCAUCCCACCACAUGAUGAUGCCUGAAGAGCCUUGGUUUUUUG

In the data set the parent is B1. Nature of the data set: polymerase ribozyme fitness, log enrichment relative to wild type (log ratio); higher = more active; in vitro selection for triplet polymerase activity. In short, it runs like this:
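Each subunit of a heterodimeric triplet polymerase ribozyme was mutagenized into a library by PCR, transcribed, and subjected to one round of in vitro selection, run in triplicate. Libraries were annealed with a biotinylated primer, the partner subunit and triplets, incubated frozen at −7 °C, and extended constructs were gel-excised, captured on streptavidin beads and recovered by RT-PCR. Input and output libraries were sequenced on Illumina, keeping genotypes with ≥10 input reads and ≥1 read per output. Fitness is log base 2 of genotype enrichment divided by wild-type enrichment, from inverse-variance-weighted replicate averages.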
Turning to U9G A18C C40G A91C G93C C94A A105G, the “polymerase ribozyme fitness (log ratio)” value was -5.58.
In the case of C72G C88A C94U G120C it was -1.57.
Turning to G23A C79A G110C U125G, the “polymerase ribozyme fitness (log ratio)” value was -6.79.
In the case of C12A G120U it was 1.57; in that of U7C G42U G69C, -2.97; in that of C12G G58A G61A C62U C124G, 0.824.
For the variant C8G A18U U21A C73U G93A, the “polymerase ribozyme fitness (log ratio)” value was -3.79.
In the case of A6G G60U U78C C104A U109A it was -5.54; in that of A2G C28U C70U G110U, -3.19.
In the case of U7G G39A C62G C114G it was -6.04; in that of C89A A90G, -1.53; in that of A27U G39U C72A, -3.78.
For the variant U14A C123U G127A, the “polymerase ribozyme fitness (log ratio)” value was -0.509.
Consider U9A G61A A75U U96G A121G U129C G135U, for which the “polymerase ribozyme fitness (log ratio)” value worked out at 0.515.
In the case of G52U U130C it was -0.807; in that of C3G C8G C73U C101G G120U, -0.772; in that of C88U G120A, -0.0108.
The figure for G47A G51C G63U C115A G120U U131G is -4.36; for U78C U112A G113A G122C U130C it is -1.11; for C13U G44U A50G C53U C56U G93U C124G it is -1.13.
The figure for C13G C20U G93A C124A is -1.04; for U54A C82U G113A it is -1.2.
For the variant C62U G93U U112G U129A, the “polymerase ribozyme fitness (log ratio)” value is -3.65.
In the case of C8A G42U G44A C114U it was -1.01; in that of C11A G61C, -2.39.
In the case of U67A A74U C94G C101A G113C it was -7.83; in that of A6C C80A, -1.52; in that of C22G C82G U96A, -3.98.
C64A C86U C98U: the “polymerase ribozyme fitness (log ratio)” value was -7.04.
In the case of A50U C70G it was -4.57.
With C8U G17C G36C, the “polymerase ribozyme fitness (log ratio)” value was -4.86.
For C114U C124A, the “polymerase ribozyme fitness (log ratio)” value was -1.04.
In the case of A27U G44U G69C C89U, the “polymerase ribozyme fitness (log ratio)” value is -6.05.
The figure for A5C G69U C72U C79A U92A is -3.86; for C13U G52C U59C C104U G120U G127A it is -1.32.
The figure for G61U G117U is -1.34; for C72U A95G C98U G113A A118G it is -4.04; for G47C A108G U112A U133A it is -5.17.
The figure for G60A C98G is -7.02; for G10A C13U C64A C70A G113A U125C it is -6.12.
Turning to C15A C73U, the “polymerase ribozyme fitness (log ratio)” value is -2.31.
As for C56G G57U C101G A111C, the “polymerase ribozyme fitness (log ratio)” value is -1.77.
For the variant C11G G19A U38G, the “polymerase ribozyme fitness (log ratio)” value is -2.63.
In the case of A2G C40U U78A C86U G117A it was -3.78; in that of A18C G52A, -2.7.
Regarding C34U C56A C114U, the “polymerase ribozyme fitness (log ratio)” value is -4.57.
In the case of U55C C56U it was 0.598; in that of U9C G71A, 0.0862.
The figure for G10U C34A G44A C72A is -5.99; for C72U G117C it is -2.69.
The figure for C34A C123U is -1.54; for C62A A68G C72U it is -3.88; for A27G G63A C79U it is -1.86.
With A27U G44C G47C U112A, the “polymerase ribozyme fitness (log ratio)” value is -3.34.
The figure for A2G A5G U7G U21G A43C G69U C88A C101U U129A is -3.72; for G60A G113A it is -0.894; for C8G G48U G58C G60U U125G it is -0.353.
The figure for C53U G60A A74C is -0.941; for A27U C86G it is -3.66.
For the variant A18U C86G G113U, the “polymerase ribozyme fitness (log ratio)” value was -4.47.
For the variant C20G C115A, the “polymerase ribozyme fitness (log ratio)” value is -3.94.
In the case of G52C C56U C82U A84C it was 0.272; in that of C72A A121U, 2.22.
In the case of A46U G93A G120A G122A it was -3.08; in that of C49U C94A, -2.8.
In the case of G39U G47U it was -2.97; in that of C76U C123A, 0.138; in that of G36C U106G, -3.63.
As to A111G, the “polymerase ribozyme fitness (log ratio)” value was 0.509.
For the variant C4G C73A A91U, the “polymerase ribozyme fitness (log ratio)” value is -3.63.
In the case of A5C C73G C102A it was -3.71; in that of G48U A84C C115A, -1.64; in that of C34A U112A, -1.81.
In the case of G36A G44A G61U G77U A84U it was -3.54; in that of G35A G36U U112A, -5.59; in that of U78C U87C, 0.532.
In the case of A43U G44U, the “polymerase ribozyme fitness (log ratio)” value was -1.67.
The figure for C13U G35C G48C C73A A74G C104U is -4.6.
As for C76A C123G, the “polymerase ribozyme fitness (log ratio)” value is -0.164.
Regarding C3A A18G G19C A90U C123U U129G, the “polymerase ribozyme fitness (log ratio)” value was -0.538.
Turning to A5C A6U A50U C56U A121U, the “polymerase ribozyme fitness (log ratio)” value is 1.17.
The figure for A18C C72A is -2.45; for U81C C114U it is -1.96.
In the case of C40A G71A it was -2; in that of G61A C73U U78A, -0.265.
In the case of G69A C88G C102U it was -6.62; in that of U30A C104A, -6.42.
With C15U C73U, the “polymerase ribozyme fitness (log ratio)” value is -1.36.
In the case of C4U U38G it was -1.16; in that of G35A G51A G60U C124U, -6.94; in that of A27C G47U G63A C86U, -6.59.
In the case of C8U C64U it was 0.265; in that of C56G U78A G117A, -2.04.
In the case of C56G C89G it was -3.34.
Regarding C11G C20G C73U U106A G107A, the “polymerase ribozyme fitness (log ratio)” value is -5.37.
The figure for U32A C56A is -3.44; for U129A U132A it is -1.56.
The figure for G48U C56A A105G A111G is -5.01; for U126C U132C it is -1.79.
Take C20A C28G C94U A111G: the “polymerase ribozyme fitness (log ratio)” value was -7.69.
The figure for C15G U55A C70A A83U C97U U130C is -5.79; for C20U C40A G44C C49G G71A C115A A119G it is -4.83.
In the case of U38G U106A it was -1.09.
The figure for U9G A108G is -1.95; for U14C G113A it is -3.18; for A27G G45U U96G G120U it is -3.04.
In the case of G63A A66C, the “polymerase ribozyme fitness (log ratio)” value was -2.96.
The figure for U9G G48U U87G C115G is 0.077; for C70G U131A it is -2; for G63A C98U it is -2.12.
The figure for C49U G63A is -1.67.
As to G61A G93A A105G G122A, the “polymerase ribozyme fitness (log ratio)” value was -5.32.
In the case of U78G C86G U112A C124G G135U it was -1.2.
Consider G113U U133A, for which the “polymerase ribozyme fitness (log ratio)” value is -3.57.
In the case of U87A U130C it was -1.39.
In the case of C70U U130A it was -1.04.
The figure for C12G C124G is 0.742.
As for C70U C82A C123U G128A, the “polymerase ribozyme fitness (log ratio)” value was -1.76.
On to A5U A46U G47C A50G C53U C86A C115G, for which the “polymerase ribozyme fitness (log ratio)” value was -5.37.
In the case of A6C G48A C82A it was -1.56; in that of A26G G60C, -3.07.
The figure for C12G C56U A100C G117U is -3.6.
Regarding A84U A90G C98G U109A A121U, the “polymerase ribozyme fitness (log ratio)” value is -3.5.
As to C72U A74C, the “polymerase ribozyme fitness (log ratio)” value was found to be 0.54.
The figure for G39A G57U G71U U78G C123A is -0.79.
In the case of U7A U21G G35A G52C C114U it was -5.47; in that of A29G C56U C101G, -6.01.
The figure for U55C C89U C115U is -3.71; for G17U G60U C88U C97U G120A it is -2.79.
As for U7A C53U U59G G60U C72G, the “polymerase ribozyme fitness (log ratio)” value is -0.651.
In the case of C15U A43C G69A C123U C124A it was -5.69; in that of G52A C86A A111C, -3.28; in that of C86A C104A C124G G128U U133A, -1.59.
For the variant C76A C115U U129A, the “polymerase ribozyme fitness (log ratio)” value was -4.13.
The figure for G10U C72U C80U is -0.683.
In the case of C15A G36A A50C G65A G69U it was -7.38; in that of A90U A103U U106C, -5.93.
Turning to C12U C56A, the “polymerase ribozyme fitness (log ratio)” value is -0.454.
With A68U C115A G120C, the “polymerase ribozyme fitness (log ratio)” value is -7.66.
The figure for A43C C124A U125G is -0.534; for U54C A118G it is -0.7; for U14G A18U G61A C115A U129A U132A it is -3.2.
In the case of U54G G63U C88U C89A A103U G122U C124A it was -7.39; in that of C12U G39U U55A G71A C94G C102A G113U, -6.81.
For C15G G61C A90G U96A, the “polymerase ribozyme fitness (log ratio)” value was -6.02.
Regarding A5C C62U C72G C101G U106G U129C, the “polymerase ribozyme fitness (log ratio)” value was -5.17.
The figure for C8A C12A G39A is -0.403; for G61A C73A A118G it is -1.71; for G36A G127C it is -1.81.
The figure for C13U A50G is -0.113; for C12G C22U it is -3.18.
The figure for A2G G52A C99U is -3.53; for A41G G44A C62A U131G it is -3.51; for G48A C49U G61U U78A G122A U126A it is -3.77.
With C49U C98U, the “polymerase ribozyme fitness (log ratio)” value is -2.16.
In the case of A41U A43G C94U it was -3.17; in that of A90C U106A, -1.42.
As for C85A G128C, the “polymerase ribozyme fitness (log ratio)” value is -4.07.
In the case of G39C G69A G127U it was -3.35; in that of U9A U32C G36C, -0.0123.
G63U U106C: the “polymerase ribozyme fitness (log ratio)” value was -1.92.
The figure for G71U A83G A91C U96C G110A is -6.02.
Regarding C15U G69U C102A, the “polymerase ribozyme fitness (log ratio)” value is -1.95.
The figure for C72A C89A C124G is 0.634.
In the case of G45U C56G G63C C101U it was -5.92.
The figure for U33A G36U G69U C99G is -5.44; for G48U A91U C123U G127U it is -2.98.
